Assay results from patent US20180085432A1, “STING (Stimulator of Interferon Genes), A Regulator of Innate Immune Responses” (University of Miami, priority 2008, published 2018).

Key:
[1] = molecular target: A366 peptide of STING
[2] = molecular target: S366 peptide of STING
[3] = system: A366 peptide; test: screening of kinases for S366 of STING (33P-ATP); assay type: biochemical; conditions: kinase mixed with peptide and 33P-ATP
Method: (§1) The activity of 217 protein kinase targets were evaluated against 2 peptides (A366 and S366) as substrate. Protein kinases were mixed with each peptide and ^33P-ATP and then activity (CPM) was measured. The below kinases were identified as phosphorylating S366 in STING. Identification of kinases which target this serine opens up novel avenues for drug discovery. Drugs that target this association may inhibit STING activity and be used for therapeutic purposes to inhibit STING activity. STING over activity may lead to inflammatory diseases which can exacerbate cancer.

[4] = system: S366 peptide; test: screening of kinases for S366 of STING (33P-ATP); assay type: biochemical; conditions: for Fold inducton: S366 peptide vs A366 peptide; for Activity, S366 peptide: kinase mixed with peptide and 33P-ATP
Method: as §1

Molecule: CK1 (isoform illegible) (enzyme)
- Activity (cpm), kinase mixed with peptide and 33P-ATP [1]: 15600 cpm
- Activity (cpm), kinase mixed with peptide and 33P-ATP [2]: 26200 cpm

Molecule: NEK6 (from UniProt Q9HC98) (enzyme)
- Activity (cpm), kinase mixed with peptide and 33P-ATP [1]: 5510 cpm
- Activity (cpm), kinase mixed with peptide and 33P-ATP [2]: 35600 cpm

Molecule: NEK6: protein kinase
- Activity, A366 peptide [3]: 5512 cpm
- Fold inducton [4]: 6.45
- Activity, S366 peptide [4]: 35556 cpm

Molecule: PIM2 (from UniProt Q9P1W9) (enzyme)
- Activity (cpm), kinase mixed with peptide and 33P-ATP [1]: 1410 cpm
- Activity (cpm), kinase mixed with peptide and 33P-ATP [2]: 3720 cpm

Molecule: PKC (isoform illegible) (enzyme)
- Activity (cpm), kinase mixed with peptide and 33P-ATP [1]: 6810 cpm
- Activity (cpm), kinase mixed with peptide and 33P-ATP [2]: 12800 cpm

Molecule: PIM2: protein kinase
- Activity, A366 peptide [3]: 1414 cpm
- Fold inducton [4]: 2.63
- Activity, S366 peptide [4]: 3715 cpm

Molecule: NEK7 (from UniProt Q8TDX7) (enzyme)
- Activity (cpm), kinase mixed with peptide and 33P-ATP [1]: 3620 cpm
- Activity (cpm), kinase mixed with peptide and 33P-ATP [2]: 19100 cpm

Molecule: NEK7: protein kinase
- Activity, A366 peptide [3]: 3619 cpm
- Fold inducton [4]: 5.28
- Activity, S366 peptide [4]: 19112 cpm

B1: GRK7 (enzyme)
chain: MVDMGALDNLIANTAYLQARKPSDCDSKELQRRRRSLALPGLQGCAELRQKLSLNFHSLCEQQPIGRRLFRDFLATVPTFRKAATFLEDVQNWELAEEGPTKDSALQGLVATCASAPAPGNPQPFLSQAVATKCQAATTEEERVAAVTLAKAEAMAFLQEQPFKDFVTSAFYDKFLQWKLFEMQPVSDKYFTEFRVLGKGGFGEVCAVQVKNTGKMYACKKLDKKRLKKKGGEKMALLEKEILEKVSSPFIVSLAYAFESKTHLCLVMSLMNGGDLKFHIYNVGTRGLDMSRVIFYSAQIACGMLHLHELGIVYRDMKPENVLLDDLGNCRLSDLGLAVEMKGGKPITQRAGTNGYMAPEILMEKVSYSYPVDWFAMGCSIYEMVAGRTPFKDYKEKVSKEDLKQRTLQDEVKFQHDNFTEEAKDICRLFLAKKPEQRLGSREKSDDPRKHHFFKTINFPRLEAGLIEPPFVPDPSVVYAKDIAEIDDFSEVRGVEFDDKDKQFFKNFATGAVPIAWQEEIIETGLFEELNDPNRPTGCEEGNSSKSGVCLLL
- Activity (cpm), kinase mixed with peptide and 33P-ATP [1]: 7260 cpm
- Activity (cpm), kinase mixed with peptide and 33P-ATP [2]: 13100 cpm
- Activity, A366 peptide [3]: 7263 cpm
- Fold inducton [4]: 1.81
- Activity, S366 peptide [4]: 13124 cpm

B2: IKKα (enzyme)
chain: MERPPGLRPGAGGPWEMRERLGTGGFGNVCLYQHRELDLKIAIKSCRLELSTKNRERWCHEIQIMKKLNHANVVKACDVPEELNILIHDVPLLAMEYCSGGDLRKLLNKPENCCGLKESQILSLLSDIGSGIRYLHENKIIHRDLKPENIVLQDVGGKIIHKIIDLGYAKDVDQGSLCTSFVGTLQYLAPELFENKPYTATVDYWSFGTMVFECIAGYRPFLHHLQPFTWHEKIKKKDPKCIFACEEMSGEVRFSSHLPQPNSLCSLVVEPMENWLQLMLNWDPQQRGGPVDLTLKQPRCFVLMDHILNLKIVHILNMTSAKIISFLLPPDESLHSLQSRIERETGINTGSQELLSETGISLDPRKPASQCVLDGVRGCDSYMVYLFDKSKTVYEGPFASRSLSDCVNYIVQDSKIQLPIIQLRKVWAEAVHYVSGLKEDYSRLFQGQRAAMLSLLRYNANLTKMKNTLISASQQLKAKLEFFHKSIQLDLERYSEQMTYGISSEKMLKAWKEMEEKAIHYAEVGVIGYLEDQIMSLHAEIMELQKSPYGRRQGDLMESLEQRAIDLYKQLKHRPSDHSYSDSTEMVKIIVHTVQSQDRVLKELFGHLSKLLGCKQKIIDLLPKVEVALSNIKEADNTVMFMQGKRQKEIWHLLKIACTQSSARSLVGSSLEGAVTPQTSAWLPPTSAEHDHSLSCVVTPQDGETSAQMIEENLNCLGHLSTIIHEANEEQGNSMMNLDWSWLTE
- Activity (cpm), kinase mixed with peptide and 33P-ATP [1]: 2430 cpm
- Activity (cpm), kinase mixed with peptide and 33P-ATP [2]: 6890 cpm
- Activity, A366 peptide [3]: 2432 cpm
- Fold inducton [4]: 2.83
- Activity, S366 peptide [4]: 6889 cpm

B3: NEK2 (enzyme)
chain: MPSRAEDYEVLYTIGTGSYGRCQKIRRKSDGKILVWKELDYGSMTEAEKQMLVSEVNLLRELKHPNIVRYYDRIIDRTNTTLYIVMEYCEGGDLASVITKGTKERQYLDEEFVLRVMTQLTLALKECHRRSDGGHTVLHRDLKPANVFLDGKQNVKLGDFGLARILNHDTSFAKTFVGTPYYMSPEQMNRMSYNEKSDIWSLGCLLYELCALMPPFTAFSQKELAGKIREGKFRRIPYRYSDELNEIITRMLNLKDYHRPSVEEILENPLIADLVADEQRRNLERRGRQLGEPEKSQDSSPVLSELKLKEIQLQERERALKAREERLEQKEQELCVRERLAEDKLARAENLLKNYSLLKERKFLSLASNPELLNLPSSVIKKKVHFSGESKENIMRSENSESQLTSKSKCKDLKKRLHAAQLRAQALSDIEKNYQLKSRQILGMR
- Activity (cpm), kinase mixed with peptide and 33P-ATP [1]: 8700 cpm
- Activity (cpm), kinase mixed with peptide and 33P-ATP [2]: 162000 cpm
- Activity, A366 peptide [3]: 8702 cpm
- Fold inducton [4]: 18.65
- Activity, S366 peptide [4]: 162331 cpm

B4: MEKK1 (enzyme)
chain: NQKCKEKMEAEEEEALAIAMAMSASQDALPIVPQLQVENGEDIIIIQQDTPETLPGHTKAKQPYREDTEWLKGQQIGLGAFSSCYQAQDVGTGTLMAVKQVTYVRNTSSEQEEVVEALREEIRMMSHLNHPNIIRMLGATCEKSNYNLFIEWMAGGSVAHLLSKYGAFKESVVINYTEQLLRGLSYLHENQIIHRDVKGANLLIDSTGQRLRIADFGAAARLASKGTGAGEFQGQLLGTIAFMAPEVLRGQQYGRSCDVWSVGCAIIEMACAKPPWNAEKHSNHLALIFKIASATTAPSIPSHLSPGLRDVALRCLELQPQDRPPSRELLKHPVFRTTW
- Activity (cpm), kinase mixed with peptide and 33P-ATP [1]: 11300 cpm
- Activity (cpm), kinase mixed with peptide and 33P-ATP [2]: 24900 cpm
- Activity, A366 peptide [3]: 11316 cpm
- Fold inducton [4]: 2.20
- Activity, S366 peptide [4]: 24866 cpm

B5: IRAK4 (enzyme)
chain: MNKPITPSTYVRCLNVGLIRKLSDFIDPQEGWKKLAVAIKKPSGDDRYNQFHIRRFEALLQTGKSPTSELLFDWGTTNCTVGDLVDLLIQNEFFAPASLLLPDAVPKTANTLPSKEAITVQQKQMPFCDKDRTLMTPVQNLEQSYMPPDSSSPENKSLEVSDTRFHSFSFYELKNVTNNFDERPISVGGNKMGEGGFGVVYKGYVNNTTVAVKKLAAMVDITTEELKQQFDQEIKVMAKCQHENLVELLGFSSDGDDLCLVYVYMPNGSLLDRLSCLDGTPPLSWHMRCKIAQGAANGINFLHENHHIHRDIKSANILLDEAFTAKISDFGLARASEKFAQTVMTSRIVGTTAYMAPEALRGEITPKSDIYSFGVVLLEIITGLPAVDEHREPQLLLDIKEEIEDEEKTIEDYIDKKMNDADSTSVEAMYSVASQCLHEKKNKRPDIKKVQQLLQEMTAS
- Activity (cpm), kinase mixed with peptide and 33P-ATP [1]: 7440 cpm
- Activity (cpm), kinase mixed with peptide and 33P-ATP [2]: 50400 cpm
- Activity, A366 peptide [3]: 7435 cpm
- Fold inducton [4]: 6.77
- Activity, S366 peptide [4]: 50353 cpm
